Assay: soluble on expression in E. coli; label from the status in PepcDB or PDB records

Sequence | soluble on expression in E. coli
MSLAFGLDKLVDLLKAAGEPTRFRLLALLSAGDLTVTDLTEILGQSQPRISRHLKLLTEEGLIERYQEGAWAYFRLRQDGEPAVVVRQLLGAASPSDAVLQRDSERLATVKRVRAERAQDYFSRNASAWDELRRLHVSDEAVEGALLKLVGTTPIDSLLDLGTGTGRILQLLSGIYRRAIGVDASRDMLSVARANLDKAGVGNASVRHGDILNLPLEGQDFDLIVIHQVLHFLDQPEIALSEAARMLRPGGRLIVIDLAPHSFEYLRDEHAHVRLGFSHPLMEEWMKKAGLSLERAVDLHSEKASDEALDVTIWVARDQRLLMADDVVQEAVLLRSGRAEGHHHHHH | soluble
MLILRKDSKFDRKSIEELKELAEVLYNPVKTIVQIRKADPKYQIGSGLVERIAENIKEENIEIVIVGNILTPSQKYNLAKKFKVEVIDKIELVLRIFYKHARTKEAQLQVRLAELQYELPRAREKVRLAKMGEQPGFGGYGDYEVEKYYQKVKREIATIKRKLEKLREHRRVARKGRAKFDTVGLIGYTNAGKTSLLNALTGENKESKNQVFTTLTTTTRAIKGIKRKILVTDTVGFIDDLPPFMIEAFLSTIEESADSDLILIVVDASDDIEEIKRKLKVNHEILSKINCKAPIITVFNKVDKITKEKKRKILEELDRYIVNPIFVSAKYDINMDLLKEMIIEHLNLSIGTIETDNPRLISYLYENTEIIEDILEDNKHIITFRAKERDVNRILKLHKSAVLEHHHHHH | not soluble
AEPVKVGSKIDTEGALLGNMIQQVLESHGVKTINKIQLGTTPVVRGAIVAGELDIYPEYTGNGAFFFKDENDPAWKNAQQGYEKVKRLDQEKHQLVWLTPAPANNTWTIAVRQDLAEKNKLTSLADLSRYLKQGGEFKLAASAEFIERPDALPAFEKAYGFNLNQNQLLSLAGGDTAVTIKAAAQQTSGVNAAMAYGTDGPVAALGLQTLSDPQGVQPIYAPTPVVREAVLKAYPQIADWLQPVFASLDEKTLQQLNARIAVEGQDAKRVAADYLQQKGLLK | not soluble
MGSDKIHHHHHHMLLDLERFYQACNPSRPLIIGNASDRRYYIDFAAVRGGKIIEALQRTIARISPDEPTCQLFTGHLGCGKSTELLRLKAELEAQQFHVVYFESTHVLEMADVDVTDILLAIAGQVSESLEAMKIRLKSTYFTKLFGEIVDFLQTPIDLGVEAELSVGIAKITAKTKESPQLRRRLRDYLEPRTANILQSINQELLERATKELKTKGKKGLVVIVDNLDRVAIRPLPSGRSLPEYLFIQRGEQLRKLNCHVVYTIPLALTFSNDSAELQHRLGGGVAPKMLPMIPVRLRSGEIFPQGLAMLRQMVLARAFPDILPSDRLGLITEVFDSLETLDRLCLISGGHVRDLLGLLFDCLREQDPPFERECVDLVIQRQRDYRANAIDPQEWELIFQVVQQQRVRGDIEYHTLLRSLFVFEYRDHQGAWFAVNPVLAETEKFKSWLNDTHKQI | not soluble
IPTKFVQKVTITKEGKKRVAPQLLTTLSA | soluble
MAHHHHHHMKPVYRYAMNHEYNINSICPIAYSDQFATADDATVLLWCTEYPDTSIETHDMRSPYEDGPRETICAVRNFPHEPFLFFVATSGGSVRVVDTRQTLRWGDQAAQAFINPPREEDEPFSNVTNSICDCALSPSGRYIAGRDFMSICLWDIRMAGSGGARNAPATPRRQAPAARGGDGNPECSMVRRWALHPHLRDDLDTIYQSNLLFDKFDVQFLSSRQVCTGGFNNTLYTMDVEGTSADAASDIRTFQLLKTEGISEFRRTTVSAHRRGEDRISTGQGLGSRMTLMSRPYMSMSGACGMMVACGQAVLQLSYNGLSK | not soluble
MGSDKIHHHHHHMKPIIIFFSLFLIPLFADDLKSGFGEEYYKLDIDQKRQIFFIKMNEMFDQSFKKIEQERAFIEAFFKDAYKTGFRTSNQINLEKLITIKNKYRIENLYDFAEYKKRIQKIPKSMGIAQALVESATGTSRFAREANNLFGEWTWGEKGLIPDLRHPDKKHKIKIFDSLQDSVDSYVLNLNRHFAYEKFRDARAKFESEGKEITGLEAIKTLDSYSERKGYYINLITKIIKRYNLEKYDTNSNNT | not soluble
MGSDKIHHHHHHMKHAFLIIAHNEYPVLEVLLSMLDDERNDIYLHIDKRATELFQQIKKVKMQKAGFYLIENPIKVYWGDISQVQVEYLLFETALSHGPYAYYHLLSGTDLPIKSQDYIHAFFQQNAGKEFVGFWQDAAHQRDLERKVFRYYFFTKRLKDKEHLLHGITALIRNLILAVQKISHYRRKQTFEFKKGGNWISITENAVKYLLQYKEIVLNRMKYTLCADEIFIQTILWNSPFRERMHCTNNANTGSMREIDWEHGSPYIWQDHDYQTLINSNKIFARKFNSNQMGVVYKIQKLYLKQVPK | not soluble

Source: the DeepSol protein solubility set
